Reference: publication PMC10208028 (Chemical Science, 2023)

What was measured:
[1] = target: T1, amyloid-β 42 (UniProt P05067 672-713); assay: NMR titration
[2] = target: T1, amyloid-β 42; assay: native MS

B1: 15N-labeled Cyt c with 104 amino acid residues (natural protein)
chain: not shown
modifications: 15N-labeled; covalently attached heme group
- binding result [1]: binds

B2: Cytochrome c (natural protein)
chain: not shown
modifications: covalently attached heme group
- stoichiometry N [2]: 1 Cyt c : Aβ42
